# In article PMC4558205 (Structure (London, England : 1993), 2015):
# Assays:
# [1] = biological target: Mj0480, archaeal DUF106 protein from Methanocaldococcus jannaschii (Methanocaldococcus jannaschii, UniProt Q57904); experiment: SEC
# [2] = biological target: the molecule itself; experiment: crystal structure
stoichiometry N [1],Binder,binding result [2]
1,"synthetic antibody fragment (sAB) M1 (Fab, V domains shown) VH: EVQLVESGGGLVQPGGSLRLSCAASGFNFSSSSIHWVRQAPGKGLEWVASISPSYGYTYYADSVKGRFTISADTSKNTAYLQMNSLRAEDTAVYYCARGIWSYWYMVYPHDNYGMDYWGQGTLVTVSS VL: DIQMTQSPSSLSASVGDRVTITCRASQSVSSAVAWYQQKPGKAPKLLIYSASSLYSGVPSRFSGSRSGTDFTLTISSLQPEDFATYYCQQSSSRPVTFGQGTKVEIK",
,"Mj0480, archaeal DUF106 protein from Methanocaldococcus jannaschii (natural protein, UniProt Q57904 1-198, looked up) MFGSIFDIYYKTLDAIFMPIIKVLHPALAILIIAIIVSLIINIATKLLVDQKRVAELKKEIQEFQVKFKKMSKNPEMMEKLQEEQQRIMQLNAELMKMSFRPMIYTWVPIILIFIYLRHVYGFGGVYQELNPGWNGVVVYLPIILSKILFIDFWHWLGSIFYKGGFKIVSNTALGWLGWYILCSFATSTVLRKILGIK",binds
